Measured values from the RNAGym collection of RNA variant scans (doi:10.7554/elife.90254).

B1: LINE1-mini (parent)
chain: GGCAGAGCUCAACACAGCGUGGCAAAGUGGCUGUGGCUAGACUGCC

Variants of: B1
Assay: self-cleavage, relative activity (ratio to wild type); higher = more cleavage; in vitro, sequencing; the parent is a self-cleaving ribozyme

Question: For G17C G44A, which self-cleavage is on record?
Answer: 0.11

Question: With U20A as the variant, how does the self-cleavage read?
Answer: 0.68

Question: For G35C U38A, which self-cleavage is on record?
Answer: 0.16

Question: With C15U A39U as the variant, how does the self-cleavage read?
Answer: 0.72

Question: With G22A G44U as the variant, how does the self-cleavage read?
Answer: 0.34

Question: For A16C C37A, which self-cleavage is on record?
Answer: 0.06

Question: With A16C C37U as the variant, how does the self-cleavage read?
Answer: 0.1

Question: For C3A G5A, which self-cleavage is on record?
Answer: 0.5

Question: With G22U G27C as the variant, how does the self-cleavage read?
Answer: 0.57

Question: Which self-cleavage does the source give for A12G A26U here?
Answer: 0.03

Question: With C15A A39C as the variant, how does the self-cleavage read?
Answer: 0.06

Question: For G36U C45G, which self-cleavage is on record?
Answer: 0.12

Question: Which self-cleavage does the source give for G29U U38G here?
Answer: 0.02

Question: For G36A G40U, which self-cleavage is on record?
Answer: 0.47

Question: For U34A U38A, which self-cleavage is on record?
Answer: 0.17

Question: For A25G U38A, which self-cleavage is on record?
Answer: 0.46

Question: Which self-cleavage does the source give for A4U G7A here?
Answer: 0.31

Question: Which self-cleavage does the source give for A12C G36C here?
Answer: 0.02

Question: With C8A G40A as the variant, how does the self-cleavage read?
Answer: 0.27

Question: With A26C C31G as the variant, how does the self-cleavage read?
Answer: 0.06

Question: For A6U C10A, which self-cleavage is on record?
Answer: 0.07

Question: With G1A G5A as the variant, how does the self-cleavage read?
Answer: 0.2

Question: Which self-cleavage does the source give for G17U C23U here?
Answer: 0.18

Question: Which self-cleavage does the source give for G1U C23A here?
Answer: 0.36

Question: Which self-cleavage does the source give for G22A G35C here?
Answer: 0.12

Question: For C31U G36C, which self-cleavage is on record?
Answer: 0.07

Question: Which self-cleavage does the source give for C10A C31G here?
Answer: 0.03

Question: For C13G U28C, which self-cleavage is on record?
Answer: 0.36

Question: For C37G G44U, which self-cleavage is on record?
Answer: 0.07

Question: For G2U A6U, which self-cleavage is on record?
Answer: 0.16

Question: With G30U G33A as the variant, how does the self-cleavage read?
Answer: 0.08

Question: For C3A A12C, which self-cleavage is on record?
Answer: 0.07

Question: With C3A A12G as the variant, how does the self-cleavage read?
Answer: 0.12

Question: Which self-cleavage does the source give for U9C C37U here?
Answer: 0.04

Question: Which self-cleavage does the source give for G7A U9G here?
Answer: 0.08

Question: Which self-cleavage does the source give for C8A U43A here?
Answer: 0.14

Question: For G1C G40U, which self-cleavage is on record?
Answer: 0.02

Question: For G21C A26U, which self-cleavage is on record?
Answer: 1.57

Question: With C18G U32G as the variant, how does the self-cleavage read?
Answer: 0.06

Question: For G21C U34G, which self-cleavage is on record?
Answer: 0.24

Question: Which self-cleavage does the source give for G1U C45U here?
Answer: 0.38

Question: With C8U C18G as the variant, how does the self-cleavage read?
Answer: 0.23

Question: Which self-cleavage does the source give for C10G C46U here?
Answer: 0.06

Question: Which self-cleavage does the source give for U38A G40U here?
Answer: 0.18

Question: Which self-cleavage does the source give for C23G A41G here?
Answer: 0.37

Question: For A25G G29C, which self-cleavage is on record?
Answer: 0.65

Question: Which self-cleavage does the source give for A11G A14G here?
Answer: 0.02

Question: Which self-cleavage does the source give for U20A G44A here?
Answer: 0.51

Question: For G36C C45U, which self-cleavage is on record?
Answer: 0.29

Question: For G21C A24C, which self-cleavage is on record?
Answer: 0.43

Question: With G1A U20A as the variant, how does the self-cleavage read?
Answer: 1.27

Question: Which self-cleavage does the source give for C42G C46A here?
Answer: 0.04

Question: Which self-cleavage does the source give for G7U U43G here?
Answer: 0.32

Question: For U28C A39C, which self-cleavage is on record?
Answer: 0.1

Question: Which self-cleavage does the source give for C31G G40A here?
Answer: 0.05

Question: With G7A C42G as the variant, how does the self-cleavage read?
Answer: 0.05

Question: With A14G G35A as the variant, how does the self-cleavage read?
Answer: 0.07

Question: Which self-cleavage does the source give for A4U G22A here?
Answer: 0.16

Question: For A14U U28C, which self-cleavage is on record?
Answer: 0.35

Question: Which self-cleavage does the source give for G29C G30U here?
Answer: 0.67

Question: Which self-cleavage does the source give for G22A G27A here?
Answer: 0.51

Question: For G36A U43G, which self-cleavage is on record?
Answer: 0.01

Question: Which self-cleavage does the source give for C3G G27U here?
Answer: 0.32

Question: Which self-cleavage does the source give for A11G U20G here?
Answer: 0.03

Question: Which self-cleavage does the source give for C10U G22C here?
Answer: 0.18

Question: With C31U G35C as the variant, how does the self-cleavage read?
Answer: 0.04

Question: With C3A G30C as the variant, how does the self-cleavage read?
Answer: 0.58

Question: Which self-cleavage does the source give for A24G U32A here?
Answer: 0.14

Question: For G1U C31U, which self-cleavage is on record?
Answer: 0.07

Question: Which self-cleavage does the source give for A6G C37A here?
Answer: 0.05

Question: Which self-cleavage does the source give for C15G G30C here?
Answer: 0.08

Question: With A24G G40A as the variant, how does the self-cleavage read?
Answer: 0.13

Question: Which self-cleavage does the source give for A6C G40U here?
Answer: 0.15

Question: With A39U U43C as the variant, how does the self-cleavage read?
Answer: 0.06

Question: With G21A U43A as the variant, how does the self-cleavage read?
Answer: 0.17

Question: For G2U C8A, which self-cleavage is on record?
Answer: 0.07

Question: With C8A G33A as the variant, how does the self-cleavage read?
Answer: 0.16

Question: With G7U A12U as the variant, how does the self-cleavage read?
Answer: 0.07

Question: With U9G A12C as the variant, how does the self-cleavage read?
Answer: 0.02

Question: With C8U A25C as the variant, how does the self-cleavage read?
Answer: 0.21

Question: For A16G, which self-cleavage is on record?
Answer: 0.61

Question: With A11G C31G as the variant, how does the self-cleavage read?
Answer: 0.03

Question: For G7A C46U, which self-cleavage is on record?
Answer: 0.32

Question: With U38G C42G as the variant, how does the self-cleavage read?
Answer: 0.02

Question: Which self-cleavage does the source give for C18A C31U here?
Answer: 0.04

Question: For A4U G21A, which self-cleavage is on record?
Answer: 0.48

Question: For G19A U34A, which self-cleavage is on record?
Answer: 0.1

Question: For G33A G44U, which self-cleavage is on record?
Answer: 0.03

Question: For C13A A24C, which self-cleavage is on record?
Answer: 0.18

Question: Which self-cleavage does the source give for U9G C23G here?
Answer: 0.15

Question: For G29C C45U, which self-cleavage is on record?
Answer: 0.67

Question: Which self-cleavage does the source give for G22U G40C here?
Answer: 0.18

Question: For C10U C45A, which self-cleavage is on record?
Answer: 0.15

Question: Which self-cleavage does the source give for U9C C10G here?
Answer: 0.03

Question: With A16C G22A as the variant, how does the self-cleavage read?
Answer: 0.1

Question: For G17U G33A, which self-cleavage is on record?
Answer: 0.06

Question: Which self-cleavage does the source give for G27A U28G here?
Answer: 0.4

Question: Which self-cleavage does the source give for G35C G44A here?
Answer: 0.09

Question: Which self-cleavage does the source give for G17U G35U here?
Answer: 0.07

Question: Which self-cleavage does the source give for C23U G27A here?
Answer: 1.07

Question: With C8U U20C as the variant, how does the self-cleavage read?
Answer: 0.09

Question: For A11U G17A, which self-cleavage is on record?
Answer: 0.04

Question: For C15A U20G, which self-cleavage is on record?
Answer: 0.08

Question: For G35U C45G, which self-cleavage is on record?
Answer: 0.07

Question: For A4C U9G, which self-cleavage is on record?
Answer: 0.24

Question: For A26U C37A, which self-cleavage is on record?
Answer: 0.08

Question: For G35U U38G, which self-cleavage is on record?
Answer: 0.03

Question: With G5C A6C as the variant, how does the self-cleavage read?
Answer: 0.23

Question: With A25C C37A as the variant, how does the self-cleavage read?
Answer: 0.11

Question: With A4G A41C as the variant, how does the self-cleavage read?
Answer: 0.19

Question: Which self-cleavage does the source give for C15A C31G here?
Answer: 0.03

Question: For A11G C15G, which self-cleavage is on record?
Answer: 0.03

Question: Which self-cleavage does the source give for G22U G36U here?
Answer: 0.06

Question: Which self-cleavage does the source give for C15U G44A here?
Answer: 0.26

Question: Which self-cleavage does the source give for U9G U38C here?
Answer: 0.09

Question: With A6U A16C as the variant, how does the self-cleavage read?
Answer: 0.09

Question: With A11C C13G as the variant, how does the self-cleavage read?
Answer: 0.03

Question: With C13A as the variant, how does the self-cleavage read?
Answer: 0.15

Question: For G30A G44U, which self-cleavage is on record?
Answer: 0.18

Question: For G1C C13A, which self-cleavage is on record?
Answer: 0.05

Question: For G1C C13U, which self-cleavage is on record?
Answer: 0.04

Question: For C15U C46G, which self-cleavage is on record?
Answer: 0.33

Question: Which self-cleavage does the source give for C8G G27C here?
Answer: 0.1

Question: With A11U U43C as the variant, how does the self-cleavage read?
Answer: 0.04

Question: Which self-cleavage does the source give for C31A G40C here?
Answer: 0.04

Question: Which self-cleavage does the source give for U20A A24U here?
Answer: 0.62

Question: For C8A A39G, which self-cleavage is on record?
Answer: 0.08

Question: For G5U A26G, which self-cleavage is on record?
Answer: 0.12

Question: Which self-cleavage does the source give for U32G G44U here?
Answer: 0.05

Question: With C10U A11G as the variant, how does the self-cleavage read?
Answer: 0.05

Question: For A12C G35A, which self-cleavage is on record?
Answer: 0.04

Question: With A12C G35C as the variant, how does the self-cleavage read?
Answer: 0.03

Question: For A4C U34A, which self-cleavage is on record?
Answer: 0

Question: With G2A G44C as the variant, how does the self-cleavage read?
Answer: 0.56

Question: With G7U G40C as the variant, how does the self-cleavage read?
Answer: 0.12

Question: Which self-cleavage does the source give for G40A U43C here?
Answer: 0.08

Question: For G7A G19C, which self-cleavage is on record?
Answer: 0.09

Question: For A12C C37G, which self-cleavage is on record?
Answer: 0.02

Question: Which self-cleavage does the source give for C18A G27A here?
Answer: 1.47

Question: With A4U U43A as the variant, how does the self-cleavage read?
Answer: 0.67

Question: For C31A A39G, which self-cleavage is on record?
Answer: 0.05

Question: Which self-cleavage does the source give for A4U C45A here?
Answer: 0.1

Question: For A4U C45G, which self-cleavage is on record?
Answer: 0.15

Question: With A14U C23U as the variant, how does the self-cleavage read?
Answer: 0.31

Question: For G7C C46A, which self-cleavage is on record?
Answer: 0.18

Question: For G7C C46G, which self-cleavage is on record?
Answer: 0.08

Question: For G5C G19C, which self-cleavage is on record?
Answer: 0.08

Question: For G19A G44U, which self-cleavage is on record?
Answer: 0.51

Question: For A12C G33U, which self-cleavage is on record?
Answer: 0.02

Question: Which self-cleavage does the source give for A14U A41U here?
Answer: 0.25

Question: With A26U U34C as the variant, how does the self-cleavage read?
Answer: 0.18

Question: For G17A G33U, which self-cleavage is on record?
Answer: 0.02

Question: For C13U C31G, which self-cleavage is on record?
Answer: 0.08

Question: Which self-cleavage does the source give for C3U A41G here?
Answer: 0.12

Question: With A4U C46U as the variant, how does the self-cleavage read?
Answer: 0.19

Question: For G2U U20C, which self-cleavage is on record?
Answer: 0.05

Question: For U9A A24G, which self-cleavage is on record?
Answer: 0.2

Question: Which self-cleavage does the source give for U28C U34G here?
Answer: 0.21

Question: For C13U U43C, which self-cleavage is on record?
Answer: 0.1

Question: Which self-cleavage does the source give for G21U here?
Answer: 1.06

Question: Which self-cleavage does the source give for U9C A24C here?
Answer: 0.02

Question: For C13U U20A, which self-cleavage is on record?
Answer: 0.17

Question: With C3U A14C as the variant, how does the self-cleavage read?
Answer: 0.08

Question: With A14U A16G as the variant, how does the self-cleavage read?
Answer: 0.09

Question: With G19C A24G as the variant, how does the self-cleavage read?
Answer: 0.53

Question: For G21C C45A, which self-cleavage is on record?
Answer: 0.49

Question: Which self-cleavage does the source give for C3G G5C here?
Answer: 0.58
